{"source": "paper PMC6905151", "about": "“Mapping of the binding site for FcμR in human IgM-Fc” (Biochimica et Biophysica Acta. Proteins and Proteomics, 2020)", "molecular_target": "T1, soluble extracellular immunoglobulin-like domain of FcμR (human)", "T1 construct": "FcμR (FAIM3, TOSO), human; 390-aa polypeptide with a 17-aa signal peptide and a 107-aa Ig-like domain; The receptor clone came from Prof; H. Kubagawa; also called sIgFcμR; not shown: His tag (from the nickel column chromatography)", "T1 sequence (O60667 whole entry, looked up)": "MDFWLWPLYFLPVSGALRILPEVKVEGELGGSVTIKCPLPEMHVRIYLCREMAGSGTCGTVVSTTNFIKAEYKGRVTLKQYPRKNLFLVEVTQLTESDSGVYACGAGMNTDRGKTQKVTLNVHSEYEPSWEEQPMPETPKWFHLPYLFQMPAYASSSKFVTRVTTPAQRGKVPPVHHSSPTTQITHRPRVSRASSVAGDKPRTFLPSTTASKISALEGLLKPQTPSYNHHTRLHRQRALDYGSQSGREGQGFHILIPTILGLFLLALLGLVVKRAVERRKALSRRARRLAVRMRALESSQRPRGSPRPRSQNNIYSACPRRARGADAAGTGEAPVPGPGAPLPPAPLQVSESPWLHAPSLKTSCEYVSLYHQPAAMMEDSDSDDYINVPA", "test": "SPR; Biacore T200, 25 °C, 0.01 M HEPES, 0.15 M NaCl, 0.005% Surfactant P20, pH 7.4; IgM, IgM-Fc, Fcμ3-4 or IgM-Fc mutants immobilised on CM5 by amine coupling; analyte sIgFcμR 0.25 μM to 12 μM; steady state, 1:1 binding model", "details": "both partners purified"}
{"binder": "Fcμ3-4, dimer of Cμ3-Cμ4 domains (domain or fragment) DQDTAIRVFAIPPSFASIFLTKSTKLTCLVTDLTTYDSVTISWTRQNGEAVKTHTNISESHPNATFSAVGEASISEDDWNSGERFTCTVTHTDLPSPLKQTISRPKGVALHRPDVYLLPPAREQLNLRESATITCLVTGFSPADVFVQWMQRGQPLSPEKYVTSAPMPEPQAPGRYFAHSILTVSEEEWNTGETYTCVVAHEALPNRVTERTVDKSTGK", "values": [{"measurement": "Kd", "value": 1090, "unit": "nM"}]}
